Consider 4 substances from publication PMC10806181.

Like-named read-outs stand apart in the source and are kept apart here.

Assay [1] has as its target Sho-Stl, enzymatically biotinylated on a C-terminal Avi-tag (Staphylococcus hominis). Description: BLI.
The target in assay [2] is Stl master repressor of the Staphylococcus aureus SaPIbov1 pathogenicity island (Staphylococcus aureus (SaPIbov1)). In words: BLI; dimer to monomers; KDIM estimated by probing dimerization constants until the ka values of the two BLI set-ups (Stl or human dUTPase on the sensor) were close to equal.
Assay [3] has the same target. Description: BLI + other: steady state dUTPase activity assay; dimer to monomers; rough estimate of KDIM from the BLI KD and the remaining activity of 50 nM human dUTPase at 200 and 300 nM Stl, assuming no competition of substrate binding.
Assay [4] addresses human dUTPase, enzymatically biotinylated on an N-terminal Avi-tag (human). Description: BLI. Background: Biolayer interferometry detects binding as a change in optical thickness at a sensor tip.
The target in assay [5] is Stl repressor of the Staphylococcus hominis ShoCI794_SEPI pathogenicity island (Staphylococcus hominis). Description: cross-linking; chemical crosslinking of Sho-Stl in solution (Fig. S1).
For assay [6] the target is unchanged. In words: BLI + other: steady state dUTPase activity assay; dimer to monomers; rough estimate of KDIM from the BLI KD and the remaining activity of 50 nM human dUTPase at 200 and 300 nM Stl, assuming no competition of substrate binding.
Assay [7] has as its target Mycobacterium tuberculosis dUTPase, enzymatically biotinylated on an N-terminal Avi-tag (Mycobacterium tuberculosis) (UniProt P9WNS5). In words: BLI.
Assay [8] concerns the target Stl repressor of the Staphylococcus hominis ShoCI794_SEPI pathogenicity island (Staphylococcus hominis). In words: SEC; gelfiltration of Sho-Stl (Fig. S1).
Assay [9] concerns the target Sho-Stl, enzymatically biotinylated on a C-terminal Avi-tag (Staphylococcus hominis). In words: BLI. This is another data set of the same source.
The target of assay [10] is Sa-Stl, enzymatically biotinylated on a C-terminal Avi-tag (Staphylococcus aureus (SaPIbov1)). In words: BLI.
For assay [11], the target named is Sho-Stl-NDY bound to the streptavidin sensor (Staphylococcus hominis). In words: BLI.

Regarding “Mycobacterium tuberculosis dUTPase (from UniProt P9WNS5 1-154) (enzyme)”, in assay [1], the Kd (usually the free concentration of one partner at which half of the binding sites on the other are occupied at equilibrium, for simple one-to-one binding) was determined as 13 pM; the koff (as a rule, the rate constant with which the complex falls apart) was 2.9e-07 s⁻¹; the kon (usually the second-order rate constant of association) worked out at 22000 M⁻¹ s⁻¹.

For “Stl master repressor of the Staphylococcus aureus SaPIbov1 pathogenicity island (natural protein)”, the Kd in [2] is 120 pM; in [3], 1 pM; in assay [4], 9750 pM. Further, the koff in assay [4] was determined as 0.00065 s⁻¹. This substance also returned a kon in [4] of 67000 M⁻¹ s⁻¹.

On to “Stl repressor of the Staphylococcus hominis ShoCI794_SEPI pathogenicity island (natural protein)”, for which the stoichiometry N (as a rule, a count of units in the complex or per binding partner) in assay [5] was determined as 2. The steady state dUTPase enzyme activity of 50 nM human dUTPase at 200 nM and 300 nM Sho-Stl (remaining activity); Sho-Stl does not inhibit the human dUTPase (% remaining activity) with human dUTPase (human) was 100. The Kd in assay [6] was 1 pM. In [7], this substance yielded a Kd of 35000 pM, a koff of 0.00041 s⁻¹ and a kon of 12000 M⁻¹ s⁻¹. This substance showed a stoichiometry N in assay [8] of 2.

Turning to human dUTPase (enzyme), the koff is 0.00025 s⁻¹ in assay [9], 0.00023 s⁻¹ in [1], 0.00027 s⁻¹ in assay [10] and 0.00024 s⁻¹ in assay [11]. The Kd turned out to be 4540 pM in assay [1], 180 pM in assay [10] and 7620 pM in [11]. Besides, the values for the association rate constant (kon) in assay [1], in assay [10] and in assay [11] were 52000 M⁻¹ s⁻¹, 1.5e+06 M⁻¹ s⁻¹ and 31000 M⁻¹ s⁻¹, respectively.
